T1: ARHGEF11, O15085
T1 sequence (O15085 42-136, limits assumed, looked up): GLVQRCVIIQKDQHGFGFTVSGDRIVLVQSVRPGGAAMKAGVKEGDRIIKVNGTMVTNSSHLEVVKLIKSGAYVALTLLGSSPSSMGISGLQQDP

T2: MPP6, Q9NZW5
T2 sequence (Q9NZW5 125-219, limits assumed, looked up): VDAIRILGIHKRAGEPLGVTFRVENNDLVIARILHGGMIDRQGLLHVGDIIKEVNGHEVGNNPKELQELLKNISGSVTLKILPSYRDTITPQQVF

T3: PCLO, Q9Y6V0
T3 sequence (Q9Y6V0 4491-4600, limits assumed, looked up): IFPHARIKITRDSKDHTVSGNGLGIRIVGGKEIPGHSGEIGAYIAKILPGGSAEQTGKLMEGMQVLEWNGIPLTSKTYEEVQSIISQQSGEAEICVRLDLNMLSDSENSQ

T4: MPP7, Q5T2T1
T4 sequence (Q5T2T1 134-230, limits assumed, looked up): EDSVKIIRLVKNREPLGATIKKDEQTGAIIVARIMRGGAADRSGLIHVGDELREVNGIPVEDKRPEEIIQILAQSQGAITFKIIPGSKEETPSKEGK

T5: GRIP1_5, Q9Y3R0
T5 sequence (Q9Y3R0 568-668, limits assumed, looked up): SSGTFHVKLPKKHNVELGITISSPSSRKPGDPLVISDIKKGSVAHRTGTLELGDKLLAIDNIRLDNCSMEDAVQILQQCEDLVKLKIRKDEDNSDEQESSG

T6: GRIP1_7, Q9Y3R0
T6 sequence (Q9Y3R0 999-1096, limits assumed, looked up): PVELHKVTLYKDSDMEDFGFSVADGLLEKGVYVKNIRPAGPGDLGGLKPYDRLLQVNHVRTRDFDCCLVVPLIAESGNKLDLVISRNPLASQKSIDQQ

T7: PDZRN3_1, Q9UPQ7
T7 sequence (Q9UPQ7 244-349, limits assumed, looked up): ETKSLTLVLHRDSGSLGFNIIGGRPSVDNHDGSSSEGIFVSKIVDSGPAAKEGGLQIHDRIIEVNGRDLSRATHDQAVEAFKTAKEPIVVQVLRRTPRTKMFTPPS

T8: PTPN13_1, Q12923
T8 sequence (Q12923 1088-1188, limits assumed, looked up): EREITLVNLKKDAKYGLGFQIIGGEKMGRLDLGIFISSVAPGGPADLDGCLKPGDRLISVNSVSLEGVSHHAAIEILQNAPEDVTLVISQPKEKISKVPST

T9: LIN7A, O14910
T9 sequence (O14910 103-200, limits assumed, looked up): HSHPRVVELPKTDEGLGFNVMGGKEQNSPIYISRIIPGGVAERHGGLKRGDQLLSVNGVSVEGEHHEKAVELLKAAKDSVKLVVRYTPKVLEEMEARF

T10: SYNJ2BP, P57105
T10 sequence (P57105 8-110, limits assumed, looked up): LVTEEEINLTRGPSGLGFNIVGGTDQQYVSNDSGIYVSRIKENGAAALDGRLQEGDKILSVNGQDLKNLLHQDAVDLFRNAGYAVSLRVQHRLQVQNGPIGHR


Biological target: T1, ARHGEF11, O15085
Assay: holdup assay
Parameters: key: below the threshold = too weak to quantify, mostly under pKd 3.1 to 4
Conditions: plain residues with an end cap or a label only (N-terminal biotin on a linker: ado-ado)

| pKd | Binder |
| --- | --- |
| below the threshold | LVEEEEPMNL [HDAC7, Q8WUI4] |
| below the threshold | MLPANYVEAI [NEB, P20929] |

Biological target: T2, MPP6, Q9NZW5
Assay: holdup assay
Parameters: key: below the threshold = too weak to quantify, mostly under pKd 3.1 to 4
Conditions: plain residues with an end cap or a label only (N-terminal biotin on a linker: ado-ado)

| pKd | Binder |
| --- | --- |
| 3.57 | LVEEEEPMNL [HDAC7, Q8WUI4] |
| below the threshold | MLPANYVEAI [NEB, P20929] |

Biological target: MAGI1_2, Q96QZ7
Sequence (Q96QZ7 456-580): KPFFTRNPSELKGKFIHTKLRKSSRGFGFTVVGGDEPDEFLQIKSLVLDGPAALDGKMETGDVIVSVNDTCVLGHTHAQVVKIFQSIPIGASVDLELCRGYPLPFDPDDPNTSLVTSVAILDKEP
Assay: holdup assay
Parameters: key: below the threshold = too weak to quantify, mostly under pKd 3.1 to 4
Conditions: plain residues with an end cap or a label only (N-terminal biotin on a linker: ado-ado)

| pKd | Binder |
| --- | --- |
| below the threshold | LVEEEEPMNL [HDAC7, Q8WUI4] |
| below the threshold | MLPANYVEAI [NEB, P20929] |

Biological target: GRASP, Q7Z6J2
Sequence (Q7Z6J2 96-193): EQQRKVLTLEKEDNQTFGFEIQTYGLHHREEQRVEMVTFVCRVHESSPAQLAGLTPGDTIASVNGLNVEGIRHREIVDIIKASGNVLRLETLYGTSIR
Assay: holdup assay
Parameters: key: below the threshold = too weak to quantify, mostly under pKd 3.1 to 4
Conditions: plain residues with an end cap or a label only (N-terminal biotin on a linker: ado-ado)

| pKd | Binder |
| --- | --- |
| below the threshold | LVEEEEPMNL [HDAC7, Q8WUI4] |
| below the threshold | MLPANYVEAI [NEB, P20929] |

Biological target: GRIP2_6, Q9C0E4
Sequence (Q9C0E4 648-740): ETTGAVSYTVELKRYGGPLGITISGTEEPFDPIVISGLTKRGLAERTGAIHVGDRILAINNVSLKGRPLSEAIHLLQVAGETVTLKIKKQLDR
Assay: holdup assay
Parameters: key: below the threshold = too weak to quantify, mostly under pKd 3.1 to 4
Conditions: plain residues with an end cap or a label only (N-terminal biotin on a linker: ado-ado)

| pKd | Binder |
| --- | --- |
| below the threshold | LVEEEEPMNL [HDAC7, Q8WUI4] |
| below the threshold | MLPANYVEAI [NEB, P20929] |

Biological target: NHERF4_2, Q86UT5
Sequence (Q86UT5 220-308): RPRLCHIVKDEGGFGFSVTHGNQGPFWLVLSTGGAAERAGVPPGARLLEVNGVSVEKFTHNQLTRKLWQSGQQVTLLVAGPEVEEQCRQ
Assay: holdup assay
Parameters: key: below the threshold = too weak to quantify, mostly under pKd 3.1 to 4
Conditions: plain residues with an end cap or a label only (N-terminal biotin on a linker: ado-ado)

| pKd | Binder |
| --- | --- |
| below the threshold | LVEEEEPMNL [HDAC7, Q8WUI4] |
| below the threshold | MLPANYVEAI [NEB, P20929] |

Biological target: T3, PCLO, Q9Y6V0
Assay: holdup assay
Parameters: key: below the threshold = too weak to quantify, mostly under pKd 3.1 to 4
Conditions: plain residues with an end cap or a label only (N-terminal biotin on a linker: ado-ado)

| pKd | Binder |
| --- | --- |
| below the threshold | LVEEEEPMNL [HDAC7, Q8WUI4] |
| below the threshold | MLPANYVEAI [NEB, P20929] |

Biological target: DLG4_2, P78352
Sequence (P78352 155-259): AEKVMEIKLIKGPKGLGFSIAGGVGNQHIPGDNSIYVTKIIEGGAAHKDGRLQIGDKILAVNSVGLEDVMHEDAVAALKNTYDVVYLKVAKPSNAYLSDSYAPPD
Assay: holdup assay
Parameters: key: below the threshold = too weak to quantify, mostly under pKd 3.1 to 4
Conditions: plain residues with an end cap or a label only (N-terminal biotin on a linker: ado-ado)

| pKd | Binder |
| --- | --- |
| below the threshold | LVEEEEPMNL [HDAC7, Q8WUI4] |
| below the threshold | MLPANYVEAI [NEB, P20929] |

Biological target: MAST2, Q6P0Q8
Sequence (Q6P0Q8 1099-1202): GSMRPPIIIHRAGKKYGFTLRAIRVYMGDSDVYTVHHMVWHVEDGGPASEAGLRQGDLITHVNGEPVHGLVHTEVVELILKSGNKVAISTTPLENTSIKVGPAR
Assay: holdup assay
Parameters: key: below the threshold = too weak to quantify, mostly under pKd 3.1 to 4
Conditions: plain residues with an end cap or a label only (N-terminal biotin on a linker: ado-ado)

| pKd | Binder |
| --- | --- |
| 4.08 | LVEEEEPMNL [HDAC7, Q8WUI4] |
| below the threshold | MLPANYVEAI [NEB, P20929] |

Biological target: AHNAK1, Q09666
Sequence (Q09666 4-100): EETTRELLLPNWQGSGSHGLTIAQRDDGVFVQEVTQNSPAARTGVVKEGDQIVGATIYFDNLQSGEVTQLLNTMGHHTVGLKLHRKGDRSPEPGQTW
Assay: holdup assay
Parameters: key: below the threshold = too weak to quantify, mostly under pKd 3.1 to 4
Conditions: plain residues with an end cap or a label only (N-terminal biotin on a linker: ado-ado)

| pKd | Binder |
| --- | --- |
| below the threshold | LVEEEEPMNL [HDAC7, Q8WUI4] |
| below the threshold | MLPANYVEAI [NEB, P20929] |

Biological target: T4, MPP7, Q5T2T1
Assay: holdup assay
Parameters: key: below the threshold = too weak to quantify, mostly under pKd 3.1 to 4
Conditions: plain residues with an end cap or a label only (N-terminal biotin on a linker: ado-ado)

| pKd | Binder |
| --- | --- |
| below the threshold | LVEEEEPMNL [HDAC7, Q8WUI4] |
| below the threshold | MLPANYVEAI [NEB, P20929] |

Biological target: MAGI1_1, Q96QZ7
Sequence (Q96QZ7 1-106): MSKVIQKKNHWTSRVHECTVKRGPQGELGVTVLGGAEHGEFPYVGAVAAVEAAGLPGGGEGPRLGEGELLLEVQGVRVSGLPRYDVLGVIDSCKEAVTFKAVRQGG
Assay: holdup assay
Parameters: key: below the threshold = too weak to quantify, mostly under pKd 3.1 to 4
Conditions: plain residues with an end cap or a label only (N-terminal biotin on a linker: ado-ado)

| pKd | Binder |
| --- | --- |
| below the threshold | LVEEEEPMNL [HDAC7, Q8WUI4] |
| below the threshold | MLPANYVEAI [NEB, P20929] |

Biological target: T5, GRIP1_5, Q9Y3R0
Assay: holdup assay
Parameters: key: below the threshold = too weak to quantify, mostly under pKd 3.1 to 4
Conditions: plain residues with an end cap or a label only (N-terminal biotin on a linker: ado-ado)

| pKd | Binder |
| --- | --- |
| below the threshold | LVEEEEPMNL [HDAC7, Q8WUI4] |
| below the threshold | MLPANYVEAI [NEB, P20929] |

Biological target: SCRIB_2, Q14160
Sequence (Q14160 857-960): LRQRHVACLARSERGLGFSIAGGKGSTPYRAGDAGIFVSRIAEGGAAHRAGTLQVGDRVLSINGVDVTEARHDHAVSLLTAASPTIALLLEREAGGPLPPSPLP
Assay: holdup assay
Parameters: key: below the threshold = too weak to quantify, mostly under pKd 3.1 to 4
Conditions: plain residues with an end cap or a label only (N-terminal biotin on a linker: ado-ado)

| pKd | Binder |
| --- | --- |
| below the threshold | LVEEEEPMNL [HDAC7, Q8WUI4] |
| below the threshold | MLPANYVEAI [NEB, P20929] |

Biological target: GRIP2_3, Q9C0E4
Sequence (Q9C0E4 238-339): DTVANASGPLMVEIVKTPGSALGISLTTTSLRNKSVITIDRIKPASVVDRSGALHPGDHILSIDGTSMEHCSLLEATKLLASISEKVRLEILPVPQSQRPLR
Assay: holdup assay
Parameters: key: below the threshold = too weak to quantify, mostly under pKd 3.1 to 4
Conditions: plain residues with an end cap or a label only (N-terminal biotin on a linker: ado-ado)

| pKd | Binder |
| --- | --- |
| below the threshold | LVEEEEPMNL [HDAC7, Q8WUI4] |
| below the threshold | MLPANYVEAI [NEB, P20929] |

Biological target: GIPC2, Q8TF65
Sequence (Q8TF65 112-203): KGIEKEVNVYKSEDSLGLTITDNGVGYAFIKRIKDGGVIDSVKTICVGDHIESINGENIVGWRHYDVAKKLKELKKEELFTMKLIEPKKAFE
Assay: holdup assay
Parameters: key: below the threshold = too weak to quantify, mostly under pKd 3.1 to 4
Conditions: plain residues with an end cap or a label only (N-terminal biotin on a linker: ado-ado)

| pKd | Binder |
| --- | --- |
| below the threshold | LVEEEEPMNL [HDAC7, Q8WUI4] |
| below the threshold | MLPANYVEAI [NEB, P20929] |

Biological target: T6, GRIP1_7, Q9Y3R0
Assay: holdup assay
Parameters: key: below the threshold = too weak to quantify, mostly under pKd 3.1 to 4
Conditions: plain residues with an end cap or a label only (N-terminal biotin on a linker: ado-ado)

| pKd | Binder |
| --- | --- |
| below the threshold | LVEEEEPMNL [HDAC7, Q8WUI4] |
| below the threshold | MLPANYVEAI [NEB, P20929] |

Biological target: T7, PDZRN3_1, Q9UPQ7
Assay: holdup assay
Parameters: key: below the threshold = too weak to quantify, mostly under pKd 3.1 to 4
Conditions: plain residues with an end cap or a label only (N-terminal biotin on a linker: ado-ado)

| pKd | Binder |
| --- | --- |
| below the threshold | LVEEEEPMNL [HDAC7, Q8WUI4] |
| below the threshold | MLPANYVEAI [NEB, P20929] |

Biological target: Inadl_4, Q8NI35
Sequence (Q8NI35 547-651): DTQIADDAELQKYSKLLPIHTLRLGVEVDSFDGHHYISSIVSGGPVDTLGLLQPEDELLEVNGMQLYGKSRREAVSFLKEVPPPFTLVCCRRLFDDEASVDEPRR
Assay: holdup assay
Parameters: key: below the threshold = too weak to quantify, mostly under pKd 3.1 to 4
Conditions: plain residues with an end cap or a label only (N-terminal biotin on a linker: ado-ado)

| pKd | Binder |
| --- | --- |
| below the threshold | LVEEEEPMNL [HDAC7, Q8WUI4] |
| below the threshold | MLPANYVEAI [NEB, P20929] |

Biological target: FRMPD2_1, Q68DX3
Sequence (Q68DX3 770-861): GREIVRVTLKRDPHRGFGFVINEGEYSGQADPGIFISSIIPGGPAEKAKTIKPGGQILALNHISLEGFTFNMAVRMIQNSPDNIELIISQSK
Assay: holdup assay
Parameters: key: below the threshold = too weak to quantify, mostly under pKd 3.1 to 4
Conditions: plain residues with an end cap or a label only (N-terminal biotin on a linker: ado-ado)

| pKd | Binder |
| --- | --- |
| below the threshold | LVEEEEPMNL [HDAC7, Q8WUI4] |
| below the threshold | MLPANYVEAI [NEB, P20929] |

Biological target: T8, PTPN13_1, Q12923
Assay: holdup assay
Parameters: key: below the threshold = too weak to quantify, mostly under pKd 3.1 to 4
Conditions: plain residues with an end cap or a label only (N-terminal biotin on a linker: ado-ado)

| pKd | Binder |
| --- | --- |
| below the threshold | LVEEEEPMNL [HDAC7, Q8WUI4] |
| below the threshold | MLPANYVEAI [NEB, P20929] |

Biological target: MAGI2_5, Q86UL8
Sequence (Q86UL8 915-1017): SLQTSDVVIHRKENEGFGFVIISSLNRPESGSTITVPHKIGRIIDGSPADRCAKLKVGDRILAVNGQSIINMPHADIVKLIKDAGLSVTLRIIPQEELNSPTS
Assay: holdup assay
Parameters: key: below the threshold = too weak to quantify, mostly under pKd 3.1 to 4
Conditions: plain residues with an end cap or a label only (N-terminal biotin on a linker: ado-ado)

| pKd | Binder |
| --- | --- |
| below the threshold | LVEEEEPMNL [HDAC7, Q8WUI4] |
| below the threshold | MLPANYVEAI [NEB, P20929] |

Biological target: MAGI2_3, Q86UL8
Sequence (Q86UL8 600-682): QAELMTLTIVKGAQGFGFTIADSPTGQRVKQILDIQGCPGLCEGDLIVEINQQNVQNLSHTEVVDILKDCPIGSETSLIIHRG
Assay: holdup assay
Parameters: key: below the threshold = too weak to quantify, mostly under pKd 3.1 to 4
Conditions: plain residues with an end cap or a label only (N-terminal biotin on a linker: ado-ado)

| pKd | Binder |
| --- | --- |
| below the threshold | LVEEEEPMNL [HDAC7, Q8WUI4] |
| below the threshold | MLPANYVEAI [NEB, P20929] |

Biological target: T9, LIN7A, O14910
Assay: holdup assay
Parameters: key: below the threshold = too weak to quantify, mostly under pKd 3.1 to 4
Conditions: plain residues with an end cap or a label only (N-terminal biotin on a linker: ado-ado)

| pKd | Binder |
| --- | --- |
| below the threshold | LVEEEEPMNL [HDAC7, Q8WUI4] |
| below the threshold | MLPANYVEAI [NEB, P20929] |

Biological target: HTRA1, Q92743
Sequence (Q92743 360-477): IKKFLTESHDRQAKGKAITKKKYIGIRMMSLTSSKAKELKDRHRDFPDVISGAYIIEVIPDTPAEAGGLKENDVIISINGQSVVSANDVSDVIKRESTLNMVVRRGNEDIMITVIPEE
Assay: holdup assay
Parameters: key: below the threshold = too weak to quantify, mostly under pKd 3.1 to 4
Conditions: plain residues with an end cap or a label only (N-terminal biotin on a linker: ado-ado)

| pKd | Binder |
| --- | --- |
| 4.16 | LVEEEEPMNL [HDAC7, Q8WUI4] |
| 4.03 | MLPANYVEAI [NEB, P20929] |

Biological target: GRID2IP_1, A4D2P6
Sequence (A4D2P6 1-87): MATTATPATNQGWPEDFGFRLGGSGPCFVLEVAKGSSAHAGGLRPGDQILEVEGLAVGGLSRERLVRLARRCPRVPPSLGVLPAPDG
Assay: holdup assay
Parameters: key: below the threshold = too weak to quantify, mostly under pKd 3.1 to 4
Conditions: plain residues with an end cap or a label only (N-terminal biotin on a linker: ado-ado)

| pKd | Binder |
| --- | --- |
| below the threshold | LVEEEEPMNL [HDAC7, Q8WUI4] |
| below the threshold | MLPANYVEAI [NEB, P20929] |

Biological target: T10, SYNJ2BP, P57105
Assay: holdup assay
Parameters: key: below the threshold = too weak to quantify, mostly under pKd 3.1 to 4
Conditions: plain residues with an end cap or a label only (N-terminal biotin on a linker: ado-ado)

| pKd | Binder |
| --- | --- |
| below the threshold | LVEEEEPMNL [HDAC7, Q8WUI4] |
| below the threshold | MLPANYVEAI [NEB, P20929] |

From publication PMC9482650, “Quantitative fragmentomics allow affinity mapping of interactomes” (Nature Communications, 2022)
